Assay results as given in the Human Domainome abundance scans (Beltran et al. 2025).

B1: KAT8 regulatory NSL complex subunit 2, residues 28 to 91; numbered along this chain, Q9H9L4 (parent)
chain: CAFTHRPCSHPRLEGQEFCIKHILEDKNAPFKQCSYISTKNGKRCPNAAPKPEKKDGVSFCAEH

Variants of: B1
Assay: abundance fitness (aPCA) (normalised: wild type 0, dead -1); higher = more abundant; growth selection in yeast, the domain comes from the species named
Conditions: Homo sapiens

Abundance fitness: each site, then its substitutions
A48: F -0.204 | S -0.168 | I -0.204 | N -0.293 | M -0.159 | L -0.16 | P -0.079 | Q -0.238 | W -0.333 | Y -0.167 | H -0.336 | C -0.078 | R -0.166 | E -0.28 | V -0.178
N41: A -0.058 | K 0.019 | F -0.086 | T -0.195 | W -0.171 | G -0.03 | C -0.161 | E -0.005 | P -0.13 | Q -0.098 | H -0.115 | Y -0.365 | M -0.079 | L -0.09 | R -0.06 | S -0.052 | V -0.031
K40: F -0.037 | D -0.14 | G -0.196 | S -0.299 | Y -0.052 | W -0.401 | L 0.184
G57: S -0.372 | D -0.138
N47: D 0.017 | M -0.074 | K -0.076 | Y -0.132 | W -0.079 | V -0.063 | T -0.057 | S -0.035 | E -0.049 | P -0.511 | R -0.062 | F 0.006 | C -0.029 | Q 0.061 | H -0.118 | G -0.076 | L -0.053 | A -0.002 | I -0.107
K51: S -0.105 | F -0.21 | M -0.099 | Q -0.217 | L -0.101 | T -0.112 | I -0.041 | E -0.064 | C -0.072 | Y -0.327 | P -0.109 | H -0.166 | R -0.087 | A -0.03 | G -0.033 | D -0.05 | N -0.195 | V -0.035
T39: C -0.205 | S -0.112 | V -0.097 | R -0.105 | L -0.209 | E 0.003 | K -0.087 | N -0.049 | P -0.207 | W -0.57 | M -0.165 | D -0.101 | Y -0.237 | F -0.105 | I -0.123 | H -0.091 | A -0.13
C61: S -0.432 | N -0.449 | E -0.399 | T -0.356 | M -0.573 | A -0.483 | I -0.499 | Q -0.44 | H -0.447 | V -0.426 | G -0.393 | R -0.56 | Y -0.585 | W -0.667 | F -0.722 | K -0.436
S59: V -0.095 | T -0.036 | N -0.189 | R -0.12 | C -0.089 | Y -0.048 | F -0.062 | L -0.037 | H -0.157 | P -0.141 | I -0.006 | W 0.01 | M -0.084 | G -0.024 | Q -0.045 | A -0.056 | E -0.243
P50: G -0.211 | R -0.106 | Y -0.249 | N -0.126 | A -0.213 | I -0.184 | F -0.135 | C -0.1 | Q -0.265 | K -0.176 | W -0.287 | D -0.302 | H -0.135 | E 0.095 | M -0.219 | L -0.131 | S -0.104 | V -0.204
I37: Y -0.137 | W -0.127 | S -0.061 | T 0.038
D56: I -0.2 | W -0.305 | S -0.067 | F -0.137 | E -0.113 | H -0.055 | N -0.073 | R -0.063 | P -0.096 | Y -0.148 | C -0.067 | Q -0.073 | T -0.057 | A -0.111 | K 0.011
V58: I -0.048 | M -0.018 | T -0.1 | F -0.063 | W -0.121 | G -0.138 | L -0.046 | A -0.018 | E -0.057 | D 0.009 | P -0.098 | Q 0.019 | K -0.037 | R -0.082 | N -0.178 | Y -0.046 | C 0.012 | S -0.088
G42: D -0.092 | L -0.125 | V -0.108 | C -0.105 | T -0.055 | W -0.246 | S -0.063 | N -0.117 | H -0.141 | M -0.139 | I -0.206 | F -0.22 | K 0.051 | P -0.1 | E -0.005 | Q -0.008 | A -0.053 | R -0.038 | Y -0.094
P46: F -0.148 | R -0.042 | Y -0.105 | S -0.049 | D -0.155 | G -0.022 | E -0.031 | L -0.079 | V -0.069 | K 0.025 | Q -0.1 | I -0.073 | C -0.065 | H -0.165 | M -0.1 | N -0.014 | T -0.049 | W -0.024 | A -0.119
S38: G -0.048 | R -0.06 | E -0.059 | W -0.076 | K -0.084 | F -0.038 | V -0.024 | Y -0.065 | H -0.111 | N -0.122 | I -0.348 | T -0.104 | A -0.002 | C -0.026 | P -0.028 | L -0.076 | M -0.159 | Q -0.08
P52: H -0.133 | I -0.136 | R -0.144 | Q -0.061 | Y -0.29 | S -0.082 | C -0.188 | V -0.083 | K -0.136 | A -0.072 | G -0.068 | L -0.106 | W -0.053 | F -0.01 | D -0.077 | M -0.024 | E -0.066
C45: I -0.594 | E -0.193 | H -0.581 | V -0.465 | P -0.561 | M -0.438 | L -0.441 | R -0.635 | W -0.79 | Y -0.671 | A -0.459 | S -0.378 | G -0.427 | F -0.609 | N -0.398
R44: N -0.014 | P -0.067 | E -0.139 | Q 0.005 | C -0.026 | M -0.04 | S -0.038 | T -0.029 | F -0.144 | K -0.071 | G -0.027 | W -0.112 | H -0.051 | D -0.102
A62: F -0.111 | N -0.105 | K 0.095 | E -0.101 | G -0.078 | H -0.081 | L -0.087 | C -0.018 | P -0.065 | D -0.093 | I -0.057 | M -0.103 | Q -0.057
K43: P -0.072 | F -0.172 | R -0.055 | I -0.181 | A -0.117 | H -0.063 | E -0.044 | V -0.074 | G -0.144 | L -0.101 | Q -0.057 | Y -0.052 | N 0.027 | T -0.028 | S -0.042 | C -0.141 | D -0.04 | W -0.141 | M -0.203
A49: I -0.076 | W -0.315 | Y -0.261 | P -0.219 | T -0.005 | H -0.147 | D -0.339 | L -0.094 | R -0.332 | V 0.076 | Q -0.3 | N -0.143 | E -0.212 | K -0.321 | C -0.148 | G -0.06 | F -0.124
